Measurements from publication PMC9852238.

Assays:
[1] = molecular target: SARS-CoV-2 Delta Spike (14-1209, S2P) (SARS-CoV-2) (UniProt P0DTC2); assay: cryo-EM structure
[2] = molecular target: SARS-CoV-2 Omicron BA.1 Spike (14-1209, S2P) (SARS-CoV-2) (UniProt P0DTC2); assay: cryo-EM structure

Question: How did the stoichiometry N [1] turn out when “SARS-CoV-2 Delta Spike (14-1209, S2P) (from UniProt P0DTC2 14-1209) (natural protein)” was run?
Answer: 3

Question: “SARS-CoV-2 Omicron BA.1 Spike (14-1209, S2P) (from UniProt P0DTC2 14-1209) (natural protein)” was tested. Which stoichiometry N [2] did it give?
Answer: 3
